Test system: MS2 coat protein
Test: apparent KD of MS2 coat protein; higher = weaker reporter binding
Details: Eterna round: R107
How it was run: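 Designed RNA switches were transcribed on-chip from Illumina sequencing clusters and titrated with SNAP-549-labelled MS2 coat protein in twofold steps from 0.7 or 1.5 nM up to 3 µM. Each step lasted 0.8–1.5 h at first and 10–20 min by the end, in 100 mM Tris-HCl pH 7.5, 80 mM KCl and 4 mM MgCl2, without or with constant ligand. Apparent KD is the median, for each design, of fits to normalised cluster binding curves.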

[1] = input ligand: theophylline 20 uM
[2] = input ligand: theophylline 2 mM
[3] = input ligand: tryptophan 2.4 mM

Sequence | apparent KD of MS2 coat protein (input ligand: arginine 13.2 mM) [nM] | apparent KD of MS2 coat protein (input ligand: none) [nM] | apparent KD of MS2 coat protein [1] [nM] | apparent KD of MS2 coat protein [2] [nM] | apparent KD of MS2 coat protein [3] [nM]
AAAGGUCGCAAUAAAUCUCCUACAUGUGAAGGAGCGCCCGAAAGGGCAGGUAGGUCGCACAUGAGGAUCACCCAUGUGAGCGACC [MAT - Exclusion Arginine A - Mod of Eli - D2] | 10.3 | 12.4 | 14.6 | 13 | 11.8
GUCAGUGACAGAAGGAGCGACAUGAGGAUCACCCAUGUCUCCCGUUAUGGGAGUUCCUUAGGUCAGGUAGGUCGCUGUCACUGAC [#1 Exclusion - Arginine B Attempt #30 (Inspired by Omei)] | 227 | 215 | 137 | 284 | 194
AUAUAUACAUGAGGAUCACCCAUGUUAUUUCGAGGACCGGUACGGCCGCCACUCGAUAGAGUAGAAGUAACAUUUGUUAGAUGAU [JR_SSTryptoA_Sub012] | 23.9 | – | 25.2 | 24.4 | –
GCACAAGAUGGAAGGAGCGCUGGUAACGGUCACAUGAGGAUCACCCAUGUGCUCCUUGCCGAGCAGGUAGGUCGCCAUCUUGUGC [SSAB NP+V+V2 #6 +-Same Structure] | 34.1 | 44.4 | 46.1 | 45.3 | 35.3
CUAAAUAUAACGGCCGCCACUUACUCAUGAGGUAACAACAUGAGGAUCACCCAUGUUUGAGGAUCAAGGACCGGGUUAUAUUUAG [AstrosSSTry#22] | 26.5 | – | 38.1 | 30.2 | –
GUUACAUGGCAAGCAUGUAUAUGGAUAGAUACCAGUUGAUAUUAAGACCCUUGGCAGCUGAGUACAUGAGGAUCACCCAUGUAAG [Theo A Ex t3] | 28.4 | – | 46.9 | – | 51.9
UUUUAGCAUCGAAGGAGCGCUGGUAGGUGACACAUGAGGAUCACCCAUGUGCUCCUUACCGAGCAGGUAGGUCGCGAUGCUAUUU [SSAB NP+V+V2 #9] | 20 | 23.7 | 35.4 | 29.4 | 25.1
AAAUAUUACGGAAGGAGCGUCUCAUAUAUGAAACAUGAGGAUCACCCAUGUGAUAAUGAACGACAGGUAGGUCGCCGAUAAUUGA [JR_AAArginiB_Sub029] | 16.1 | 16 | 22.7 | 16.8 | 15.1
AACGUAUACAGAAGGAGCGUGAAUUAUAUUACUCAUUGUUAUACAUGAGGAUCACCCAUGUCACAGGUAGGUCGCUGUAUUCGUA [JR_ExcArginiB_Sub018] | 76.9 | 131 | 126 | 162 | 110
GGUAUGUAUUCGGAAACGAAUGCAUACCAACGAGGACCGGUACGGCCGCCACUCGCGGCUGAUCAACAUGAGGAUCACCCAUGUA [Ex Tryptophan A 4] | 19.4 | 24.8 | 33 | 31.5 | 28.4
AGAUCGCUGACCGCGGGAGAUGCGCAGGAUACCAGCCUAAUGUCCGGCCCUUGGCAGCCUGUAACAUGAGGAUCACCCAUGUGAA [theeternabot_exclusion_MS2_Theo_A_29] | 15 | – | 20.9 | – | 18.1
CACGAAAGAUCGGCCGCCACUCAUGUUUCUUACAUGAGGAUCACCCAUGUAUUUUCUUUCUUUUAGAGGACCGGGAUUGAGCGUG [SSTB #1] | 117 | – | 197 | 199 | –
GGCCUGUGGUGCGAUACCAGCUUGAGUGUACUGGCCAGGUACAUGAGGAUCACCCAUGUAAGCCCUUGGCAGCGCGUCAGAGGCC [#1 Exclusion - Theophylline B Attempt #19 (HarryS)] | 13.5 | 8.82 | 16.9 | 30.3 | 12.1
AAUUCCUAACAUGAGGAUCACCCAUGUGAAGGAGCGCCGAAUAAGGCAGGUAGGUCGCACAUGGAACAGCUGCGAAAGAGGAAAA [XArg-A 5 V1&2] | 11.9 | 13.2 | 15.3 | 12.5 | 12.7
AGAUGAGUCACGGCCGCCACUCACUUCAGGUUCACCCUUGGUUAACAUGAGGAUCACCCAUGUGGGAGGACCGGGUGAUGAGCAU [XTryp B #3] | 11.8 | – | 23.8 | 25.3 | –
GGUUACUCUACGGCCGCCACUGUAAAGUAAAGAUACCUGUACAUGACAUGAGGAUCACCCAUGUACAGGACCGGGUAGUGUAACC [Tryptophan B 16] | 133 | – | 636 | 804 | –
CAUCGUCGGUCGGCCGCCACUACUGGACAUGAGGAUCACCCAUGUGGCCCGCUGUAUUAACCGCGUAGGACCGGGACGGGAGGUA [theeternabot_exclusion_MS2_Trp_B_4] | 24 | – | 48.6 | 39.3 | –
UGAUAUAUGCGAAGGAGCGGGAAAUAUAUAUAUAUAAUCCUAACAUGAGGAUCACCCAUGUCCCAGGUAGGUCGCGCAUAUAUUG [12.D] | 58.7 | 64.8 | 78.5 | 77.1 | 59.7
UGUAUGUGAUCUGAUACCAGCUAGCGGAAACGCAGCUUGAGGAUCACCCAAGUGGAAAUAAGCCCUUGGCAGCAGAUCGCAUACU [Denovo 6 #StaticStem #AlternativeMS2] | 99.7 | 246 | 139 | 11.9 | 309

Sequence | apparent KD of MS2 coat protein (input ligand: arginine 13.2 mM) [nM] | apparent KD of MS2 coat protein (input ligand: none) [nM] | apparent KD of MS2 coat protein [1] [nM] | apparent KD of MS2 coat protein [2] [nM] | apparent KD of MS2 coat protein [3] [nM]
AAUUGGGUUGGUGAGGUGGUUGGAGGCGAUACCAGCGUGGAAACACGCCCUUGGCAGCGCCAAAACAUGAGGAUCACCCAUGUUA [Plzen] | 42 | 475 | 365 | 484 | 157
GCUAGGUCUACGGCCGCCACUAGACGUGGGUUUAACAUGAGGAUCACCCAUGUGCUACAGGCGCAUAGGACCGGGUAGACCUAGC [SSTB NP+V+V2 #10 +-Same Structure] | 532 | 414 | 713 | 928 | 51.3
AUAAGUAAUGUUUCGUGUUUUAUUACAGAUACCAGACUAUACGUUGUCCCUUGGCAGCUGGAUUACAUGAGGAUCACCCAUGUUG [JR_ExcTheophyA_Sub003] | 17.6 | – | 26.5 | – | 18.5
CCUCAUGUGACGGCCGCCACUGAAGUGAUCGAAACAUGAGGAUCACCCAUGUUACGAUCAGAGAACAGGACCGGGUCAACAUGGG [Try B SS s1] | 7.46 | 9.32 | 13.6 | 13.1 | 9.85
GCACGACAUGAGGAUCACCCAUGUGCAGAUACCAGUAAUGUAUAUUACCCUUGGCAGCUGAGUAGAUCUGGAGGGCUAUAGGUAA [Same State Theophylline A GF10] | 11.5 | – | 18.7 | – | 14.1
UUCAGCUAGUCGGCCGCCACUACUUGAGGAUCACCCAAGUAGGUCCACACUGCUUCGGCAGUGAGUAGGACCGGGACUAGCUGAG | 13.7 | 14.7 | 13.5 | 11.5 | 35.3
UCACAUGAGGAUCACCCAUGUGUCAGAGAAGGAGCGGCCGCAAGGCCAGGUAGGUCGCUCGGGUAGCGUGAGGAUCACCCGUGUG [#1 Exclusion - Arginine A Attempt #11 (Inspired by cyborg)] | 31.8 | 65.8 | 175 | 77.5 | 45.1
AAACGCUAUGCGGCCGCCACUAAGGUUGGCGUCUAUGUCGUUUAAGACAUGAGGAUCACCCAUGUUAGGACCGGGCAUGUCCGCG [theeternabot_exclusion_MS2_Trp_B_25] | 19.1 | – | 22.9 | 22.4 | –
AGACGAGAAGAGGUUUACCCAUGUACAGAAGGAGCGUCGUUGACGACAGGUAGGUCGCUGAAAACAUGAGGAUCACCCAUGUUGA [#05 Exclusion - Arginine A] | 62.9 | 31.1 | 35.3 | 39.7 | 31.7
UAUCCACAUGAGGAUCACCCAUGUAGGGAAGGAGCGGUGAUUUCACCAGGUAGGUCGCCUUGCUGAGGGUAGCCGGUGGAAUCGU [Exclusion - Arginine A (Freestyle 32)] | 24.4 | 19.7 | 22.4 | 9.15 | 10.9
UUAUUUAACGGAAGGAGCGCGGAUAAUAAAGUGGGUAAACAUGAGGAUCACCCAUGUAAACCGCAGGUAGGUCGCCGAUAUUUAU [AstrosEXyARgB#6] | 43.9 | 56.5 | 77.6 | 72.9 | 42.6
GAUGAACUAUGUGAUACCAGACAACAUGAGGAUCACCCAUGUGCGCGUCGUCCUCUGCCUGUCCCUUGGCAGCGUAUAGUUUAUC [XTheo B #13] | 77.9 | – | 110 | – | 47.8
GUCGCUGAGAGAAGGAGCGUGAAGACAUGAGGAUCACCCAUGUAGAGGCGCCGAAGGCGUUCGCAGGUAGGUCGCUCUCAGUGAC [#1 Same State - Arginine B Attempt #21 (HarryS)] | 10.2 | 15.4 | 19.2 | 21.8 | 17.3
GGACUAACCAGAAGGAGCGACGCGCAGAAACUGCAAUUUCCUCCACACGAGGAUCACCCGUGUCAGGUAGGUCGCUGGUUAGUCG | 15 | 17.4 | 18.7 | 17.6 | 16.6
GUCCUCAUGACGGCCGCCACUAAACAUGAGGAUCACCCAUGUAAUGAUCCAUUAAAUGAUAAUAGUAGGACCGGGUCAAAAUAAA [Same State Typptophan B GF11] | 135 | – | 833 | 979 | –
GGCUGUUGCUCUUUGAAGCGGCAGCGUGAUACCAGAUGUAAGAGCGUCCCUUGGCAGCACGUUUACAUGAGGAUCACCCAUGUCA [Raisquin] | 70.6 | – | 163 | – | 151
AGACAUGUAGGAUAAUUGACUAUUACAGAUACCAGACUGUCUAAUGUCCCUUGGCAGCUGCAUUACAUGAGGAUCACCCAUGUUA [JR_ExcTheophyA_Sub012] | 16.5 | – | 22.7 | – | 20.4
CUAUGCAGGUCGGCCGCCACUACACACAUGAGGAUCACCCAUGUAGUUACUGGGUGAAGUGGCAGUAGGACCGGGACCUGCACAC [Brourdmod18] | 150 | 436 | 458 | 619 | 431
GCUGUAAGUGCAGAUACCAGCAAGUGAUAUUUCAUAUGACAUGAGGAUCACCCAUGUAACUGCCCUUGGCAGCUGCACUUACAGC [SSTHB #10] | 114 | – | 122 | – | 241
